Measured values: patent publication US11918645B2, “Vaccines against hepatitis B virus” (priority 2012, dated 2024)

Columns and labels:
[1] = target: HLA-A*0201 (Homo sapiens, UniProt P04439, D140Y/D185E/D98H/E176V/E277Q/G131W/G231S/I119V/I121R/I166T/I218V/L300P/L318F/N151K/N90K/P208A/P217A/Q86G/Q94H/R138H/R169H/T345S); assay: ProImmune REVEAL MHC class I binding assay of nonamers; settings: score as % of positive control peptide
From the text: (§1) The number of HLA class I binding registers contained in each peptide may be determined by determining the ability of the peptide to bind to a range of frequently occurring HLA class I molecules. HLA class I binding may be measured using the ProImmune REVEAL® MHC-peptide Binding Assay (ProImmune Ltd, Oxford, UK). The REVEAL™ MHC peptide-binding assay measures the ability of each peptide to stabilize the ternary MHC-peptide complex for […], HLA-A*0201, HLA¬A*0301, HLA-A*2402, HLA-B*0702, HLA-B*0801, HLA-B*3501 representative of main HLA class I supertypes. Each tested peptide is given a score relative to a pass/fail control peptide and also compared to a positive control peptide.
(§2) Detection is based on the presence or absence of the native conformation of the MHC-peptide complex. The highly frequent HLA class I alleles (HLA-A*0201, A*0301, A*1101, A*2402, B*0702, B*0801, and B*3501) were selected. Binding to MHC molecules was compared to that of a known T-cell epitope, a positive control peptide, with very strong binding properties. […] The score of the test peptide is reported quantitatively as a percentage of the signal generated by the positive control peptide, and the peptide is indicated as having a putative pass or fail result. Good binders are considered to be those peptides with scores 45% of the positive control as defined by ProImmune.

[2] = target: T1, HLA-A*0301 (Homo sapiens, UniProt P04439); assay: as above; settings: score as % of positive control peptide
T1 construct: purchased ProImmune
From the text: as §1, §2

[3] = target: T2, HLA-A*1101 (Homo sapiens, UniProt P04439, A114D/D185E/E176A/F33Y/L180Q/S129P/T187R); assay: as above; settings: score as % of positive control peptide
T2 construct: purchased ProImmune
From the text: as §1, §2

[4] = target: HLA-A*2402 (Homo sapiens, UniProt P04439, D101N/D140Y/D185E/E176V/E190D/F33S/G103R/G107R/I119L/I121M/I306V/K335N/L105A/L180Q/L300P/N151K/N90K/Q86E/Q94H/R106L/R138H/R89G/T104I/T345S/V100E/W191G/Y123F); assay: as above; settings: score as % of positive control peptide
From the text: as §1, §2

[5] = target: T3, HLA-B*0702 (Homo sapiens, UniProt P01889); assay: as above; settings: score as % of positive control peptide
T3 construct: purchased ProImmune
From the text: as §1, §2

[6] = target: HLA-B*0801 (Homo sapiens, UniProt P01889, A93T/A95T/D138N/E176V/E187T/K202T/Q94N/R180D/S35A/V36M/Y33D/Y91F); assay: as above; settings: score as % of positive control peptide
From the text: as §1, §2

[7] = target: HLA-B*3501 (Homo sapiens, UniProt P01889, A329T/A93T/A95T/C349S/D201E/D98Y/E176V/E187L/E204Q/E69T/I218V/K202T/L119I/Q94N/R155S/R180L/S121R/S35A/S48A/T118I/V127L/V306I/V36M/Y140S/Y91F); assay: as above; settings: score as % of positive control peptide
From the text: as §1, §2

[8] = tested on: HLA class I alleles; assay: ProImmune REVEAL MHC class I binding assay, summary over the seven alleles; set-up: species or system human; settings: for Number of allele (b): number of class I alleles for which positive binding was detected; for Number of HLA binders (a): total number binding epitopes detected for each long peptide, seven class I alleles
From the text: as §1, §2

[9] = target: T4, HLA-DR15 (α1*01:01;β1*15:01) (Homo sapiens, UniProt P01903+P01911); assay: ProImmune REVEAL MHC class II binding assay of long peptides; settings: percentage of the signal of the positive control peptide; positive binding score >=15%
T4 construct: purchased ProImmune
From the text: (§3) The highly frequent HLA class II alleles HLA-DR1 (α1*01:01;β1*01:01), HLA-DR15 (α1*01:01;β1*15:01), HLA-DR3 (α1*01:01;β1*03:01), HLA-DR4 (α1*01:01;β1*04:01), HLA-DR11 (α1*01:01;β1*11:01), HLA-DR13 (α1*01:01;β1*13:01), and HLA-DR7 (α1*01:01;β1*07:01) were selected. Each peptide was given a score relative to the positive control peptide, which is a known T-cell epitope. The score of the test peptide is reported quantitatively as a percentage of the signal generated by the positive control peptide, and the peptide is indicated as having a putative pass or fail result. Good binders are considered to be those peptides with scores >=15% of the positive control as defined by Proimmune.

[10] = target: T5, HLA-DR7 (α1*01:01;β1*07:01) (Homo sapiens, UniProt P01903+P01911, A100R/A102G/A103Q/D57E/D86V/E43K/F76Y/K127E/L162R/M171V/P40G/Q125H/Q99D/R195Q/R33Q/R42Y/R54Q/S133A/S149N/S66F/T210M/V115G/Y107V/Y59L/Y89S); assay: as above; settings: percentage of the signal of the positive control peptide; positive binding score >=15%
T5 construct: purchased ProImmune
From the text: as §3

[11] = target: T6, HLA-DR13 (α1*01:01;β1*13:01) (Homo sapiens, UniProt P01903+P01911, A100E/A169T/K41T/L162R/M171V/P40S/Q125H/Q178H/Q39Y/Q99D/R42S/S66N/W38E/Y61H); assay: as above; settings: percentage of the signal of the positive control peptide; positive binding score >=15%
T6 construct: purchased ProImmune
From the text: The highly frequent HLA class II alleles HLA-DR1 (α1*01:01;β1*01:01), HLA-DR15 (α1*01:01;β1*15:01), HLA-DR3 (α1*01:01;β1*03:01), HLA-DR4 (α1*01:01;β1*04:01), HLA-DR11 (α1*01:01;β1*11:01), HLA-DR13 (α1*01:01;β1*13:01), and HLA-DR7 (α1*01:01;β1*07:01) were selected. Each peptide was given a score relative to the positive control peptide, which is a known T-cell epitope.

T6 sequence (P01903 26-216, other chains not shown): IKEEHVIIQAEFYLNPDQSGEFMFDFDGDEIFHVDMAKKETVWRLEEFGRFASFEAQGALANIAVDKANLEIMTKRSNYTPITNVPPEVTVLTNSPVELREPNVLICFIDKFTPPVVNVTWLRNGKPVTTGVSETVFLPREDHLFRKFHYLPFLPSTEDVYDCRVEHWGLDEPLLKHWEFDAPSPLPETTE

| Substance | Number of nonamers having a binding score >= 45%, HLA-A*0201 [1] | Number of nonamers having a binding score >= 45%, HLA-A*0301 [2] | Number of nonamers having a binding score >= 45%, HLA-A*1101 [3] | Number of nonamers having a binding score >= 45%, HLA-A*2402 [4] | Number of nonamers having a binding score >= 45%, HLA-B*0702 [5] | Number of nonamers having a binding score >= 45%, HLA-B*0801 [6] | Number of nonamers having a binding score >= 45%, HLA-B*3501 [7] | Number of allele (b) [8] | Number of HLA binders (a) [8] | binding score, HLA-DR15 (α1*01:01;β1*15:01) [9] | binding score, HLA-DR7 (α1*01:01;β1*07:01) [10] | binding score, HLA-DR13 (α1*01:01;β1*13:01) [11] |
| --- | --- | --- | --- | --- | --- | --- | --- | --- | --- | --- | --- | --- |
| NP113: unconjugated HBV long peptide, polymerase region 96-130 of virtual HBV proteome (VGPLTVNEKRRLKLIMPARFYPNVTKYLPLDKGIK; HBV CONSENSUS SEQUENCE) | 2 | 3 | 5 | 3 | 2 | 3 | 2 | 7 | 20 | 28.04% | 99.17% | 0.00% |
| NP151: unconjugated HBV long peptide, polymerase region 134-168 (PEHVVNHYFQTRHYLHTLWKAGILYKRETTRSASF; HBV CONSENSUS SEQUENCE) | 3 | 4 | 3 | 4 | 3 | 4 | 0 | 6 | 21 | 38.96% | 19.41% | 0.00% |
| NP753(K): unconjugated HBV long peptide, core KK + 738-770 (S to T at 743) + KKK (KKKEFGATVELLSFLPSDFFPSVRDLLDTASALYRKKK; HBV CONSENSUS SEQUENCE) | 3 | 0 | 1 | 3 | 1 | 1 | 1 | 6 | 10 | 0.00% | 0.00% | 0.00% |
